# B1: FS20m-232-91AA/E2A (bispecific antibody, part only; not given: E2A Fab and upper Fc, human IgG1, part only)
# heavy, part: GQPREPQVYTLPPSRDELFDPMYYYNQVSLTCLVKGFYPSDIAVEWESNGEPLWDYKTTPPVLDSDGSFFLYSKLTVWRDRWEDGNVFSCSVMHEALHNHYTQKSLSLSPGK
# B2: G1/OX86 (antibody, from another filing, human IgG1, V domains shown)
# VH: QVQLKESGPGLVQPSQTLSLTCTVSGFSLTGYNLHWVRQPPGKGLEWMGRMRYDGDIYYNSVLKSRLSISRDTSKNQVFLKMNSLQTDDTAIYYCTRDGRGDSFDYWGQGVMVTVSS
# VL: DIVMTQGALPNPVPSGESASITCRSSQSLVYKDGQTYLNWFLQRPGQSPQLLTYWMSTRASGVSDRFSGSGSGTYFTLKISRVRAEDAGVYYCQQVREYPFTFGSGTKLEIKR
# B3: FS20m-232-91AA/R84 (bispecific antibody, part only; not given: R84 Fab and upper Fc, human IgG1, part only)
# heavy, part: B1 heavy, part
# B4: FS20m-232-91AA/C9B7W (bispecific antibody, part only; not given: C9B7W Fab and upper Fc, human IgG1, part only)
# heavy, part: B1 heavy, part
# Target: mouse OX40 receptor, cell-expressed (DO11.10-mOX40) (mouse) (UniProt P47741)
# Sequence (P47741 20-272): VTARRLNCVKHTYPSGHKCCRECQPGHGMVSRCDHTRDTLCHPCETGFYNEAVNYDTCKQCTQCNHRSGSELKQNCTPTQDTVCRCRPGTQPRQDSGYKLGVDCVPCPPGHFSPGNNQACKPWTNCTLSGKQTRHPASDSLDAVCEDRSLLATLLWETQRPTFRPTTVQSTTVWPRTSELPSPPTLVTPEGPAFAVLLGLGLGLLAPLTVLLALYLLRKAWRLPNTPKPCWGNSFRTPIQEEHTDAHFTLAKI
# Assay: cell-based or functional assay
binder,measurement,value
B1,"EC50 of IL-2 release, HPAC cells present, + a-hFc",0.289 nM
same,"Max response, HPAC cells present, + a-hFc",18800 mIL-2 pg/ml
same,"Max response, crosslinked by EphA2 on HPAC cells, no crosslinking agent",11000 mIL-2 pg/ml
B2,"EC50 of IL-2 release, HPAC cells present, + a-hFc",0.811 nM
same,"EC50 of IL-2 release, Xlink (anti-hFc)",15.6 nM
same,"Max response, HPAC cells present, + a-hFc",17900 mIL-2 pg/ml
same,"Max response, Xlink (anti-hFc)",16200 mIL-2 pg/ml
B3,"EC50 of IL-2 release, Xlink (VEGF)",0.144 nM
same,"EC50 of IL-2 release, no added crosslinker",29.9 nM
same,"Max response, Xlink (VEGF)",15100 mIL-2 pg/ml
same,"Max response, no added crosslinker",16700 mIL-2 pg/ml
B4,"EC50 of IL-2 release, no added crosslinker (LAG3 co-expressed on T cells)",0.175 nM
same,"Max response, no added crosslinker (LAG3 co-expressed on T cells)",9670 mIL-2 pg/ml
